Experimental findings from patent US20160376353A1 (DECIMMUNE THERAPEUTICS, published 2016) are described below.

Changes are numbered by the printed parent chain. Names and notes keep the numbering of the source. Ends that are not written are not given here.

Assay [1] deals with T1, Biotin-labeled N2 peptide (also: biotin label, position not given here).
T1 construct: also called immobilized N2
T1 peptide: LMKNMDPLNDNV
The experiment in a line: SPR (BIACORE X100), biotin-N2 peptide on NeutrAvidin chip, antibody in solution; steady state affinity. The source says: (§1) The humanized variable regions were cloned into a vector containing wild type human IgG1, human IgG1 containing a mutation at amino acid 297 (Asn 297 to Q297), human IgG4 containing a mutation at amino acid 228 (serine to proline) and human kappa light chain. Each antibody (heavy and light) combination was expressed by transient co-transfection in 293A cells (in the presence of low Ig serum). The antibody containing supernatants were collected and analyzed for binding to the N2 peptide by ELISA and BIACORE™ X100 system. All experiments were performed using a BIACORE™ X100 system. For antibody capture experiments, a CM5 chip was prepared by 10 ul/minute injection of EDC/NHS (N-ethyl-N′-(3-dimethylaminopropyl) carbodiimide (EDC), N-hydroxysuccinimide (NHS) for 7 minutes, followed by a 10 ul/minute injection of anti-human Fc (GE Lifesciences) at a concentration of 25 ug/ml in sodium acetate at pH 5 for 3 minutes. Ethanolamine-HCl was injected for 7 minutes at 10 ul/minute. The chimeric or humanized antibodies were captured onto flow cell 2 and N2 peptide at varying concentrations was flowed over flow cells 1 and 2 at a rate of 30 ul/minute with a contact time of 120 seconds and a dissociation period of 120 seconds. Complete removal of captured antibody was accomplished by regeneration with 3M MgCl2 for 30 seconds at a flow rate of 10 ul/minute. For peptide immobilized experiments, a CM5 chip was prepared by 10 ul/minute injection of EDC/NHS (N-ethyl-N′-(3-dimethylaminopropyl) carbodiimide (EDC), N-hydroxysuccinimide (NHS) for 7 minutes, followed by a 10 ul/minute injection of NEUTRAVIDIN® protein (ThermoFisher Pierce) at a concentration of 5 ug/ml in sodium acetate, pH 5 to an immobilization response of 100-200RU. Ethanolamine-HCl was injected for 7 minutes at 10 ul/minute. Biotin-labeled N2 peptide was captured on flow channel 2 with the goal of an experimental Rmax of about 50-100RU. Purified chimeric or humanized antibodies were flowed over both flow channels at a rate of 30 ul/min for a contact time of 120 seconds and allowed to dissociate for 600 seconds.

Assay [2] concerns the target T1, Biotin-labeled N2 peptide. Briefly: SPR (BIACORE X100), biotin-N2 peptide on NeutrAvidin chip, antibody in solution; kd/ka (monovalent).
Excerpt: as §1, with “The remaining sequences represent the germline sequences with the highest homology that encode productive antibody. All of the humanized sequences maintain the murine 21G6 CDR regions which are shown inside the boxes in FIG. 1. The humanized” for “The humanized”
A general note: SPR reads the build-up and loss of mass on a sensor chip optically.

In assay [3] the target is T2, N2 peptide (non-muscle myosin neo-epitope N2 12mer sequence).
T2 construct: also called N2 12-mer peptide
T2 peptide: LMKNMDPLNDNV
Briefly: SPR (BIACORE X100), antibody captured by anti-human Fc, N2 peptide in solution.
Excerpt: as §1, with “The remaining sequences represent the germline sequences with the highest homology that encode productive antibody. All of the humanized sequences maintain the murine 21G6 CDR regions which are shown inside the boxes in FIG. 1. The humanized” for “The humanized”

Assay [4] deals with T1, Biotin-labeled N2 peptide. The experiment in a line: SPR (BIACORE X100), biotin-N2 peptide on NeutrAvidin chip, antibody in solution; upper end of the printed range 7-19. An excerpt:
(§2) The remaining sequences represent the germline sequences with the highest homology that encode productive antibody. All of the humanized sequences maintain the murine 21G6 CDR regions which are shown inside the boxes in FIG. 1. The humanized variable regions were cloned into a vector containing wild type human IgG1, human IgG1 containing a mutation at amino acid 297 (Asn 297 to Q297), human IgG4 containing a mutation at amino acid 228 (serine to proline) and human kappa light chain. Each antibody (heavy and light) combination was expressed by transient co-transfection in 293A cells (in the presence of low Ig serum). The antibody containing supernatants were collected and analyzed for binding to the N2 peptide by ELISA and BIACORE™ X100 system. All experiments were performed using a BIACORE™ X100 system. […]

Assay [5] deals with T1, Biotin-labeled N2 peptide. The experiment in a line: SPR (BIACORE X100), biotin-N2 peptide on NeutrAvidin chip, antibody in solution; upper end of the printed range 7-10.
Excerpt: as §2

Assay [6] concerns the target T2, N2 peptide (non-muscle myosin …). Briefly: SPR (BIACORE X100), IgG capture and direct immobilization of antibody, N2 peptide in solution.
Excerpt: as §2

In assay [7] the target is T1, Biotin-labeled N2 peptide. The experiment in a line: SPR (BIACORE X100), biotin-N2 peptide on NeutrAvidin chip, antibody in solution; upper end of the printed range 3-6.5.
Excerpt: as §2

For assay [8], the target named is T1, Biotin-labeled N2 peptide. Briefly: SPR (BIACORE X100), biotin-N2 peptide on NeutrAvidin chip, antibody in solution; upper end of the printed range 2.0-5.2.
Excerpt: as §2

Assay [9] concerns the target T1, Biotin-labeled N2 peptide. Briefly: SPR (BIACORE X100), biotin-N2 peptide on NeutrAvidin chip, antibody in solution; upper end of the printed range 8.6-9.1.
Excerpt: as §2

Assay [10] addresses T1, Biotin-labeled N2 peptide. The experiment in a line: SPR (BIACORE X100), biotin-N2 peptide on NeutrAvidin chip, antibody in solution; upper end of the printed range 2.0-3.2.
Excerpt: as §2

Assay [11] concerns the target T1, Biotin-labeled N2 peptide. Briefly: SPR (BIACORE X100), biotin-N2 peptide on NeutrAvidin chip, antibody in solution; upper end of the printed range 4.3-6.5.
Excerpt: as §2

Assay [12] addresses T1, Biotin-labeled N2 peptide. Briefly: SPR (BIACORE X100), biotin-N2 peptide on NeutrAvidin chip, antibody in solution; upper end of the printed range 1.5-4.3.
Excerpt: as §2

B1: Chimeric 21G6, human heavy chain constant region IgG4 (antibody, V domains shown)
VH: QVQLQQPGAELVKPGASVKLSCKASGYTFTSYYMYWVKQRPGQGLEWIGGINPSNGGTNFNEKFKSKATLTVDKSSSTAYMQLSSLTSEDSAVYYCTRWGYDREWFAYWGQGTLVTVSA
VL: DIVMTQAAPSVPVTPGESVSISCRSSKSLLHSNGNTYLYWFLQRPGQSPQVLIYRMSNLASGVPDRFSGSGSGTAFTLRISRVEAEDVGVYYCMQHLEYPFTFGSGTKLEIKR
notes: Human IgG4 constant region; also called CHIgG4 / Ch; ch21G6 IgG4
As to B1, the Kd (as a rule, the concentration at which binding is half-saturated) was found to be 113 nM in assay [1], 800 nM in assay [2] and 4100 nM in assay [3].

B2: Chimeric 21G6, human heavy chain constant region IgG1 with Q297 mutation (antibody, V domains shown)
VH: B1 VH
VL: B1 VL
notes: Human IgG1 constant region with Asn 297 to Gln; also called ch21G6 N297Q
With B2, the koff (as a rule, a measure of how fast the partners let go of each other) in assay [4] was 0.019 s⁻¹. Moreover, the Kd in [1] is 196 to 240 nM; in assay [2], 100 to 200 nM; in [3], 5600 nM. In addition, the kon (usually a measure of how fast the partners come together) in assay [5] worked out at 100000 M⁻¹ s⁻¹.

B3: H4-21G6 / L2-21G6, human IgG1 N297Q (antibody, V domains shown)
VH: QVQLVQSGAEVKKPGASVKVSCKASGYTFTSYYMYWVRQAPGQGLEWMGGINPSNGGTNFNEKFKSRVTMTTDTSTSTAYMELRSLRSDDTAVYYCTRWGYDREWFAYWGQGTLVTVSS
VL: DIVMTQSPLSLPVTPGEPASISCRSSKSLLHSNGNTYLYWFLQKPGQSPQLLIYRMSNLASGVPDRFSGSGSGTDFTLKISRVEAEDVGVYYCMQHLEYPFTFGQGTKLEIKR
notes: also called H4/L2 N297Q
In the case of B3, the Kd in [6] lay in the range of 6000 to 11000 nM.

B4: H3-21G6 / L1-21G6 (Table 2, constant region not stated) (antibody, V domains shown)
VH: B3 VH with A16S, M48I, R67K, V68A, M70I, T72V, T74K, R84S, D89E
VL: DIVMTQSPATLSVSPGERATISCRSSKSLLHSNGNTYLYWFQQKPGQPPKVLIYRMSNLASGVPARFSGSGSGTDFTLTISSVEPEDFATYYCMQHLEYPFTFGGGTKLEIKR
notes: human kappa light chain; also called H3/L1
Turning to B4, the koff in assay [7] was 0.0065 s⁻¹. Also, the Kd stood at 280 nM in [1] and 300 nM in assay [2]. The kon in assay [8] amounted to 52000 M⁻¹ s⁻¹.

B5: H2-21G6 / L2-21G6 (Table 2, constant region not stated) (antibody, V domains shown)
VH: B3 VH with M48I, R67K, V68A, T72V, T74K, T91S
VL: B3 VL
notes: human kappa light chain; also called H2/L2
With B5, the Kd in assay [1] was 240 nM; in assay [2], 280 to 420 nM. In assay [9], the koff is 0.0091 s⁻¹. In addition, in assay [10], the kon stood at 32000 M⁻¹ s⁻¹.

B6: H2-21G6 / L1-21G6 (Table 2, constant region not stated) (antibody, V domains shown)
VH: B3 VH with M48I, R67K, V68A, T72V, T74K, T91S
VL: B4 VL
notes: human kappa light chain; also called H2/L1
With B6, the Kd in assay [2] worked out at 660 nM.

B7: H3-21G6 / L3-21G6 (Table 2, constant region not stated) (antibody, V domains shown)
VH: B3 VH with A16S, M48I, R67K, V68A, M70I, T72V, T74K, R84S, D89E
VL: B3 VL with S7T, P12S, V13Y, E17Q
notes: human kappa light chain; also called H3/L3
Consider B7, for which the Kd in assay [2] was 900 nM.

B8: H3-21G6 / L2-21G6 (Table 2, constant region not stated) (antibody, V domains shown)
VH: B3 VH with A16S, M48I, R67K, V68A, M70I, T72V, T74K, R84S, D89E
VL: B3 VL
notes: human kappa light chain; also called H3/L2
B8: in [2], the Kd is 640 nM.

B9: H1-21G6 / L1-21G6 (Table 2, constant region not stated) (antibody, V domains shown)
VH: B1 VH with Q5V, P7S, L11V, R40A, S76A, Q82E, T87R, S91T, A119S
VL: B4 VL
notes: human kappa light chain; also called H1/L1
Regarding B9, the figures for the Kd in assay [1] and in assay [2] were 320 nM and 100 to 430 nM, respectively. In assay [11], the koff came out at 0.0065 s⁻¹. Further, the kon in assay [12] was 43000 M⁻¹ s⁻¹.

B10: H4-21G6 / L2-21G6 (Table 3B, constant region not stated) (antibody, V domains shown)
VH: B3 VH
VL: B3 VL
notes: human kappa light chain; also called H4/L2
As to B10, in assay [2], the Kd is 100 nM.

B11: H2-21G6 / L3-21G6 (Table 2, constant region not stated) (antibody, V domains shown)
VH: B3 VH with M48I, R67K, V68A, T72V, T74K, T91S
VL: B3 VL with S7T, P12S, V13Y, E17Q
notes: human kappa light chain; also called H2/L3
With B11, the figures for the Kd in assay [1] and in assay [2] were 680 nM and 140 nM, respectively.

B12: H1-21G6 / L3-21G6 (Table 2, constant region not stated) (antibody, V domains shown)
VH: B1 VH with Q5V, P7S, L11V, R40A, S76A, Q82E, T87R, S91T, A119S
VL: B3 VL with S7T, P12S, V13Y, E17Q
notes: human kappa light chain; also called H1/L3
For the molecule B12, the Kd came to 1000 nM in [1] and 1580 nM in assay [2].
